Results as given in IntAct's records for PubMed 31515488.
Blank lines part the entries; values can stand above or below the substance they belong to.

Legend:
mtus2_human MTUS2 = mtus2_human MTUS2 (UniProt Q5JR59)
txnd5_human TXNDC5 = txnd5_human TXNDC5 (UniProt Q8NBS9)
hem1_human ALAS1 = hem1_human ALAS1 (UniProt P13196)
fsd2_human FSD2 = target: T1, fsd2_human FSD2 (UniProt A1L4K1)
T1 sequence: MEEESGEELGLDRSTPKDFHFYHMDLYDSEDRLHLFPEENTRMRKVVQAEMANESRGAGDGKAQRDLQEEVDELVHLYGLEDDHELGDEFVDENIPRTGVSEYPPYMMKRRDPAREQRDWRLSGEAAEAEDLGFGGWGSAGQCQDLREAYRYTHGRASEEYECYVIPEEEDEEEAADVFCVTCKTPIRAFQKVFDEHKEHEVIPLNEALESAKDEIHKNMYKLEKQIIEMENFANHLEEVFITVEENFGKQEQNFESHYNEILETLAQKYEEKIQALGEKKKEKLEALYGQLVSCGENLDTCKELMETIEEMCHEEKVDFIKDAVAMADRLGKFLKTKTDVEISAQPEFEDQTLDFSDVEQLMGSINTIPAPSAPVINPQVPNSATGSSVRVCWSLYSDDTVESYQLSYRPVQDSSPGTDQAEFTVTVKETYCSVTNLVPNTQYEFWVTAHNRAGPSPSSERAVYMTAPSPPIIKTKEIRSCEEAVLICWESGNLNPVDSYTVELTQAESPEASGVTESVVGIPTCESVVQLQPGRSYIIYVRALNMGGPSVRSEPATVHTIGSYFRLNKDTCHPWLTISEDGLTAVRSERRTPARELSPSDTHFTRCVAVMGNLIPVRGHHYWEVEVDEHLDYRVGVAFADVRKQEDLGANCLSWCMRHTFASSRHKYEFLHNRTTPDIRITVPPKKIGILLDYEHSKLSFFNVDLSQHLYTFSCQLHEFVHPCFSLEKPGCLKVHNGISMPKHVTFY

goga2_human GOLGA2 = target: T2, goga2_human GOLGA2 (UniProt Q08379)
T2 sequence: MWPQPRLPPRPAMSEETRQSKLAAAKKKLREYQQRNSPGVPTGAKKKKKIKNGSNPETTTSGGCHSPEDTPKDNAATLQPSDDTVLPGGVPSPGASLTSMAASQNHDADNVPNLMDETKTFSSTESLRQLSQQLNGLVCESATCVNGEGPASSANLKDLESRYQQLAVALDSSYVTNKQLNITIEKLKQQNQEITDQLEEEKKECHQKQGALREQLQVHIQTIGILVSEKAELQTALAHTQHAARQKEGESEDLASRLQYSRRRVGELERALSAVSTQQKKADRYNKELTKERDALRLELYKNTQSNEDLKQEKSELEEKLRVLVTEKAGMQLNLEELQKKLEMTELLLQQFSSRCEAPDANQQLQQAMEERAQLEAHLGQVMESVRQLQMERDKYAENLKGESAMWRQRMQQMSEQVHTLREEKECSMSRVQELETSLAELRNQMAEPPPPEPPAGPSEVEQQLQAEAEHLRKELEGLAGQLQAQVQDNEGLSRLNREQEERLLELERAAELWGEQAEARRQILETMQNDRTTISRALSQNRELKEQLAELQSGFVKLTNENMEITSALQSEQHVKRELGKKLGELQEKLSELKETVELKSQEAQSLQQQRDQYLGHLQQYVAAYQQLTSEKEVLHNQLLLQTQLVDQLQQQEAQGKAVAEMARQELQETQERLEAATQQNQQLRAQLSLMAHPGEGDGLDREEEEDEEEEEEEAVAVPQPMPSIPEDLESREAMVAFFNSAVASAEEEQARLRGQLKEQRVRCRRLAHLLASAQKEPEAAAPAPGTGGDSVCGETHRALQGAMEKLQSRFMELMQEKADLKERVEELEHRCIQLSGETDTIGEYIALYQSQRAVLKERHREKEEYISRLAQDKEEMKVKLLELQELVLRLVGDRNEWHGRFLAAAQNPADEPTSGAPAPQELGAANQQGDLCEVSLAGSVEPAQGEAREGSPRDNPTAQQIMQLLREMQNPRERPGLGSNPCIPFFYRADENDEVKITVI

erep1_human ENTREP1 = erep1_human ENTREP1 (UniProt Q15884)
pdli7_human PDLIM7 = pdli7_human PDLIM7 (UniProt Q9NR12)
Sequence of pdli7_human PDLIM7 (Q9NR12 whole entry): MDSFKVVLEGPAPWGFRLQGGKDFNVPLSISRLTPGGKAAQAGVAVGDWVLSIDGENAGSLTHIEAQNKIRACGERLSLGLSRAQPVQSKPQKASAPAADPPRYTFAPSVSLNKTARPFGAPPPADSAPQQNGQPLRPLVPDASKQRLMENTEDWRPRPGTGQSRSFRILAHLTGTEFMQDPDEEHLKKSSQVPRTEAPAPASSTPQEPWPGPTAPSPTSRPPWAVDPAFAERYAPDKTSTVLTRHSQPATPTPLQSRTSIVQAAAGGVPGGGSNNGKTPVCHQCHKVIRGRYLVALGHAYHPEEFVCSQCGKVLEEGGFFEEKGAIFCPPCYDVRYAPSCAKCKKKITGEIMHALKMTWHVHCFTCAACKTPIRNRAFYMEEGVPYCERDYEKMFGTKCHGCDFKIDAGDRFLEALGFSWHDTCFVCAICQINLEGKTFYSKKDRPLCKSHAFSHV

hnrl1_human HNRNPUL1 = hnrl1_human HNRNPUL1 (UniProt Q9BUJ2)
fxl18_human FBXL18 = fxl18_human FBXL18 (UniProt Q96ME1)
Sequence of fxl18_human FBXL18 (Q96ME1 whole entry): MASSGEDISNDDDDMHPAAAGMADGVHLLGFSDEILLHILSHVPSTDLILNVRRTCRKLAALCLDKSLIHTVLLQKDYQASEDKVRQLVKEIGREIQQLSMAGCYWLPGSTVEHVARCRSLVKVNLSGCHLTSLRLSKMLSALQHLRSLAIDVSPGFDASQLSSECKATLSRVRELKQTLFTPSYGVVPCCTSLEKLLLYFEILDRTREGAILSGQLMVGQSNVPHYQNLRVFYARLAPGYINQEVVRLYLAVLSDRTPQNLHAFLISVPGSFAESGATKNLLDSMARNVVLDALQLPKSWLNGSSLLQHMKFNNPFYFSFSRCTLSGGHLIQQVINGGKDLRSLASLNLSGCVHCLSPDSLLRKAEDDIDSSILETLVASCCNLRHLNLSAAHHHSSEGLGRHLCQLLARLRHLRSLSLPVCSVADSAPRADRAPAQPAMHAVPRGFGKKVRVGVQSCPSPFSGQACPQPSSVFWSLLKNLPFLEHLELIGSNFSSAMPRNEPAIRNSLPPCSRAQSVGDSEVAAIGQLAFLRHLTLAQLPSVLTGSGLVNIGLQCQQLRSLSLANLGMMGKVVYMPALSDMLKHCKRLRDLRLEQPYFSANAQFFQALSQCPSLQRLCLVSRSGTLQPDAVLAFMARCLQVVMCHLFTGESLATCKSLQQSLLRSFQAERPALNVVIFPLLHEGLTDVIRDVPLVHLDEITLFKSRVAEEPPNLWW

mare1_human MAPRE1 = mare1_human MAPRE1 (UniProt Q15691)
Sequence of mare1_human MAPRE1 (Q15691 whole entry): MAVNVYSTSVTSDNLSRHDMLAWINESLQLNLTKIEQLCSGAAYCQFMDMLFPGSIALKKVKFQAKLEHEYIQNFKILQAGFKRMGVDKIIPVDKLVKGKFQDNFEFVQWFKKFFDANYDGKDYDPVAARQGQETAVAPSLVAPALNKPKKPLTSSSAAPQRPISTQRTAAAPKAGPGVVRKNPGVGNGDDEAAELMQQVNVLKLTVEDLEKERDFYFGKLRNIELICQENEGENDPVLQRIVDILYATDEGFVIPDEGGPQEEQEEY

sdcb1_human SDCBP = sdcb1_human SDCBP (UniProt O00560)
Sequence of sdcb1_human SDCBP (O00560 whole entry): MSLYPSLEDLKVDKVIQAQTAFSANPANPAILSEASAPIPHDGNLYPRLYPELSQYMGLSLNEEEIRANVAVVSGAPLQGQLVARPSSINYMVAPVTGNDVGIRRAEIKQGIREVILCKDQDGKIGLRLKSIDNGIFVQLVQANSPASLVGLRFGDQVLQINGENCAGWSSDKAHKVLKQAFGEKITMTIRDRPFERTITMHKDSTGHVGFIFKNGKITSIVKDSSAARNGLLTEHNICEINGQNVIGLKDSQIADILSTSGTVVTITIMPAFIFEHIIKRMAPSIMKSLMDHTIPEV

ut14c_human UTP14C = ut14c_human UTP14C (UniProt Q5TAP6)
Sequence of ut14c_human UTP14C (Q5TAP6 whole entry): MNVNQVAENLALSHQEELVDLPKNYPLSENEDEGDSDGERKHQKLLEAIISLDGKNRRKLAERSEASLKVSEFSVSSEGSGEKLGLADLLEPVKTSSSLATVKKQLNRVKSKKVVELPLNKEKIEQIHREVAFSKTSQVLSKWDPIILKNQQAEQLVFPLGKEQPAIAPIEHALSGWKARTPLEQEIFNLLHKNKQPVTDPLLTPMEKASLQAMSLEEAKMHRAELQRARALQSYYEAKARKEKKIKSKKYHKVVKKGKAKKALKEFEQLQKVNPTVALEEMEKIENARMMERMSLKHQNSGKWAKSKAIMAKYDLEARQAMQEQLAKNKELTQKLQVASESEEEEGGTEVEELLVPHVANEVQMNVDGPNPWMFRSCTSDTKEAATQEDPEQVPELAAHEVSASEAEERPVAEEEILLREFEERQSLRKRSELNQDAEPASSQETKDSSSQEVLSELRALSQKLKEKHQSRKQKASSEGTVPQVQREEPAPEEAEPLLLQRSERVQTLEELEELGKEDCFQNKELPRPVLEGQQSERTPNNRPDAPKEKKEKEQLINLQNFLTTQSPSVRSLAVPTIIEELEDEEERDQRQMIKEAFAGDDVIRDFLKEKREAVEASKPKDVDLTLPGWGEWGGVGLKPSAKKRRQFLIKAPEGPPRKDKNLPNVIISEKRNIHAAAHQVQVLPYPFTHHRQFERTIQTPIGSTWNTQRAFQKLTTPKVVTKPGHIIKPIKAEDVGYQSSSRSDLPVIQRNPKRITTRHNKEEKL

prp31_human PRPF31 = prp31_human PRPF31 (UniProt Q8WWY3)
Sequence of prp31_human PRPF31 (Q8WWY3 whole entry): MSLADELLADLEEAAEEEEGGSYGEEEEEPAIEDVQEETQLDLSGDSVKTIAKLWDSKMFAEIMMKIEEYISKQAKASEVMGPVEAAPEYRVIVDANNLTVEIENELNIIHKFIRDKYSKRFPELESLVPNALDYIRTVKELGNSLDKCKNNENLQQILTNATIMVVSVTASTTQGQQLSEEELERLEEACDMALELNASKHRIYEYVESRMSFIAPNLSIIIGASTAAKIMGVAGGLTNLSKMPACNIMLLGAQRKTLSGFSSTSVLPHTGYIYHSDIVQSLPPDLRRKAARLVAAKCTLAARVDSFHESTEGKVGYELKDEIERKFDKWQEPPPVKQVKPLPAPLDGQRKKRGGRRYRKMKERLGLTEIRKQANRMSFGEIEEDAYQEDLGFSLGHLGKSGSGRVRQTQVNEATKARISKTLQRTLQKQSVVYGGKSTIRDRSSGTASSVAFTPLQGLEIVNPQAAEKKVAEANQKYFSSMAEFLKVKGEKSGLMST

lmo4_human LMO4 = lmo4_human LMO4 (UniProt P61968)
Sequence of lmo4_human LMO4 (P61968 whole entry): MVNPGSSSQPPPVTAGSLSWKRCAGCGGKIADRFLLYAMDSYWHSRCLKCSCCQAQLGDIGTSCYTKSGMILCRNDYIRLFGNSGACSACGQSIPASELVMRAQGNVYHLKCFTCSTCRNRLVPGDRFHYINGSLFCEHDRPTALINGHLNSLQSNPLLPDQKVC

TSC22D4 = TSC22D4 (UniProt Q9Y3Q8)
mycd_human MYOCD = target: T3, mycd_human MYOCD (UniProt Q8IZQ8)
T3 sequence: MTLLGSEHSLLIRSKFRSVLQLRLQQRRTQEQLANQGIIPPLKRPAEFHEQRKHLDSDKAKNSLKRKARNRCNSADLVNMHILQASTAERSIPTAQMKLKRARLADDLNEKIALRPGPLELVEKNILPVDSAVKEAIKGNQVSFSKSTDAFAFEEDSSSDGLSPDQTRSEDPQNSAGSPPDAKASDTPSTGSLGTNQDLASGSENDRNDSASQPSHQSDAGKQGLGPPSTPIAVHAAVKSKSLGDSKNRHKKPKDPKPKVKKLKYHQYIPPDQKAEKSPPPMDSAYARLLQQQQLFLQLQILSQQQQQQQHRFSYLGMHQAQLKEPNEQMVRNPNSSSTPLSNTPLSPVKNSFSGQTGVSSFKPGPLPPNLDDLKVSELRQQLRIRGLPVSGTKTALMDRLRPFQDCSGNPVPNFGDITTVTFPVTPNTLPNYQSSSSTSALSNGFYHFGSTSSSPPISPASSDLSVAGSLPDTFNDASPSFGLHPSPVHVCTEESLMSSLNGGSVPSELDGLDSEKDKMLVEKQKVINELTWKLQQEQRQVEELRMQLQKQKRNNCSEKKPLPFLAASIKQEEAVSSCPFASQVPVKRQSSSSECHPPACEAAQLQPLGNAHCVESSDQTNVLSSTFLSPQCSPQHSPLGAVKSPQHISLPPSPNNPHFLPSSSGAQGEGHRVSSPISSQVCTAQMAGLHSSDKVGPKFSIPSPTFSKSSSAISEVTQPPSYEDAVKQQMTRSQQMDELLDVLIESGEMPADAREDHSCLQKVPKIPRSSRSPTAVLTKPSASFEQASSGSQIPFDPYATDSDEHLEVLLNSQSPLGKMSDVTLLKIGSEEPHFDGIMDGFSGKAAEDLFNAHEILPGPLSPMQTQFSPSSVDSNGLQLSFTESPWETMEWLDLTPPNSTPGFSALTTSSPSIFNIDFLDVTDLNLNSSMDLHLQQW

gt253_human CERCAM = gt253_human CERCAM (UniProt Q5T4B2)
vtnc_human VTN = vtnc_human VTN (UniProt P04004)
cep63_human CEP63 = cep63_human CEP63 (UniProt Q96MT8)
Sequence of cep63_human CEP63 (Q96MT8 whole entry): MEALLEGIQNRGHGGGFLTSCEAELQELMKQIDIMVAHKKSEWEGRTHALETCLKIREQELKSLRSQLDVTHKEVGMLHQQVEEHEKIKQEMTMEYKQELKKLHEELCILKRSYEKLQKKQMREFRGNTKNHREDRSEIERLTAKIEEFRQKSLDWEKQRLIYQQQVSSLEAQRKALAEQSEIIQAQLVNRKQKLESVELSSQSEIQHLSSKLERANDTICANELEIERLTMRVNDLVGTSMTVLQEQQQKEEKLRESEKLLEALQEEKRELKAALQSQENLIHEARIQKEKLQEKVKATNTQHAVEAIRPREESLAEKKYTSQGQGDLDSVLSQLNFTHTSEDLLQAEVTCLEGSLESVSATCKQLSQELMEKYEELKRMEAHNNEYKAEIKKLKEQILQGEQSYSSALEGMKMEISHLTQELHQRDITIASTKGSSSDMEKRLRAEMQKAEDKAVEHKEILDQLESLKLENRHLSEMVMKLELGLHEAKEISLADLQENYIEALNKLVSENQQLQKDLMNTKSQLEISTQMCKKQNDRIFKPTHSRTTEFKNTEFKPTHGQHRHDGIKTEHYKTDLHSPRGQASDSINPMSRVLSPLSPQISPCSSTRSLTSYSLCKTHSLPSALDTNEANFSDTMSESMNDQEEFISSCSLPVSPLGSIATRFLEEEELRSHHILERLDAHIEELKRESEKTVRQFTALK

vatl_human ATP6V0C = vatl_human ATP6V0C (UniProt P27449)
Sequence of vatl_human ATP6V0C (P27449 whole entry): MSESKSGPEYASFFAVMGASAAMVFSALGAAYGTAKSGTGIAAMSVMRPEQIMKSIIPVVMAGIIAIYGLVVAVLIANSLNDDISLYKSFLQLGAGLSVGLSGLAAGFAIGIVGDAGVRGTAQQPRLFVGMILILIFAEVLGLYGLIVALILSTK

sc22a_human SEC22A = sc22a_human SEC22A (UniProt Q96IW7)
ppla_human PLN = ppla_human PLN (UniProt P26678)
Sequence of ppla_human PLN (P26678 whole entry): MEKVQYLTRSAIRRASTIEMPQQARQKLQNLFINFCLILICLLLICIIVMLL

mal_human MAL = mal_human MAL (UniProt P21145)
Sequence of mal_human MAL (P21145 whole entry): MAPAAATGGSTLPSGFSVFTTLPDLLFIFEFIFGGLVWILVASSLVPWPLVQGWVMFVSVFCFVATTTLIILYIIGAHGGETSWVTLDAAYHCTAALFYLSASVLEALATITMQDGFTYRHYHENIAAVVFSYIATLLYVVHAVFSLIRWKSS

emp3_human EMP3 = emp3_human EMP3 (UniProt P54852)
Sequence of emp3_human EMP3 (P54852 whole entry): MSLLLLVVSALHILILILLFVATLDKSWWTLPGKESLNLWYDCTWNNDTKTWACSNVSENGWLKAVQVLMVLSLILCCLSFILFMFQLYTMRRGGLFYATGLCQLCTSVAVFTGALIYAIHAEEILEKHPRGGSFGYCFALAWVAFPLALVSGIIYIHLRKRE

Sequence of Ectodysplasin-A (Homo sapiens), Q92838 A367T (Q92838 whole entry A367T): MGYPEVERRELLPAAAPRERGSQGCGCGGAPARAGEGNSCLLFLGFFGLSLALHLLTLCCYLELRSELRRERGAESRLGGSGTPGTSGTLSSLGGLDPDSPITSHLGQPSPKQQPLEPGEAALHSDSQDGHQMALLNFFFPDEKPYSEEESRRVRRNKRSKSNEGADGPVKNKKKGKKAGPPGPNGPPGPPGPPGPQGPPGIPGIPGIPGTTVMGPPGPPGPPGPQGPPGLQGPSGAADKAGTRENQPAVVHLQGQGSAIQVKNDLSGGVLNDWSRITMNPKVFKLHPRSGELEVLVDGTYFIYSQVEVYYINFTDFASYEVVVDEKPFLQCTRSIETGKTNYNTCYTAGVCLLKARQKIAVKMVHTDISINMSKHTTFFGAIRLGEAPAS
Sequence of Ectodysplasin-A (Homo sapiens), Q92838 R153H (Q92838 whole entry R153H): as the sequence (Q92838 whole entry A367T) above, with R153H, T367A counted along it

Substance: Zinc finger protein 224 (Homo sapiens), Q9NZL3 K640E
effect of a mutation on the interaction (mtus2_human MTUS2): with no effect

Substance: Mannose-1-phosphate guanylyltransferase catalytic subunit beta (Homo sapiens), Q9Y5P6 H126D
effect of a mutation on the interaction (txnd5_human TXNDC5): with no effect

Substance: Parafibromin (Homo sapiens) (from UniProt Q6P1J9) L95P
effect of a mutation on the interaction (hem1_human ALAS1): disrupting interaction strength | effect of a mutation on the interaction (fsd2_human FSD2): disrupting interaction strength | effect of a mutation on the interaction (goga2_human GOLGA2): disrupting interaction strength

Substance: NEDD4-like E3 ubiquitin-protein ligase WWP2 (Homo sapiens), O00308 R215W
effect of a mutation on the interaction (erep1_human ENTREP1): with no effect | effect of a mutation on the interaction (pdli7_human PDLIM7): with no effect | effect of a mutation on the interaction (hnrl1_human HNRNPUL1): with no effect | effect of a mutation on the interaction (fxl18_human FBXL18): with no effect

Substance: Myomegalin (Homo sapiens), Q5VU43 M783I
effect of a mutation on the interaction (mare1_human MAPRE1): with no effect | effect of a mutation on the interaction (sdcb1_human SDCBP): with no effect | effect of a mutation on the interaction (ut14c_human UTP14C): with no effect | effect of a mutation on the interaction (prp31_human PRPF31): with no effect | effect of a mutation on the interaction (lmo4_human LMO4): with no effect

Substance: Nuclear receptor-binding protein (Homo sapiens), Q9UHY1 V365I
effect of a mutation on the interaction (TSC22D4): with no effect

Substance: Nuclear receptor-binding protein (Homo sapiens), Q9UHY1 P432L
effect of a mutation on the interaction (TSC22D4): with no effect

Substance: Golgi-associated PDZ and coiled-coil motif-containing protein (Homo sapiens) (from UniProt Q9HD26) G53E
effect of a mutation on the interaction (mycd_human MYOCD): disrupting interaction strength | effect of a mutation on the interaction (gt253_human CERCAM): disrupting interaction strength | effect of a mutation on the interaction (vtnc_human VTN): disrupting interaction strength

Substance: Myomegalin (Homo sapiens), Q5VU43 I612T
effect of a mutation on the interaction (mare1_human MAPRE1): with no effect | effect of a mutation on the interaction (sdcb1_human SDCBP): with no effect | effect of a mutation on the interaction (ut14c_human UTP14C): with no effect | effect of a mutation on the interaction (prp31_human PRPF31): with no effect | effect of a mutation on the interaction (lmo4_human LMO4): with no effect

Substance: Histone-lysine N-methyltransferase EZH2 (Homo sapiens), Q15910-2 N640K
effect of a mutation on the interaction (cep63_human CEP63): with no effect

Substance: Myomegalin (Homo sapiens), Q5VU43 E391A
effect of a mutation on the interaction (mare1_human MAPRE1): with no effect | effect of a mutation on the interaction (sdcb1_human SDCBP): with no effect | effect of a mutation on the interaction (ut14c_human UTP14C): with no effect | effect of a mutation on the interaction (prp31_human PRPF31): with no effect | effect of a mutation on the interaction (lmo4_human LMO4): with no effect

Substance: Parafibromin (Homo sapiens) (from UniProt Q6P1J9) R147C
effect of a mutation on the interaction (hem1_human ALAS1): with no effect | effect of a mutation on the interaction (fsd2_human FSD2): with no effect | effect of a mutation on the interaction (goga2_human GOLGA2): with no effect

Substance: Ectodysplasin-A (Homo sapiens), Q92838 R153H
effect of a mutation on the interaction (vatl_human ATP6V0C): with no effect | effect of a mutation on the interaction (sc22a_human SEC22A): with no effect | effect of a mutation on the interaction (ppla_human PLN): with no effect | effect of a mutation on the interaction (mal_human MAL): with no effect | effect of a mutation on the interaction (emp3_human EMP3): with no effect

Substance: Ectodysplasin-A (Homo sapiens), Q92838 A367T
effect of a mutation on the interaction (vatl_human ATP6V0C): with no effect | effect of a mutation on the interaction (sc22a_human SEC22A): with no effect | effect of a mutation on the interaction (ppla_human PLN): with no effect | effect of a mutation on the interaction (mal_human MAL): with no effect | effect of a mutation on the interaction (emp3_human EMP3): with no effect

Next, values leading:

effect of a mutation on the interaction (mtus2_human MTUS2): with no effect
Substance: Zinc finger protein 224 (Homo sapiens), Q9NZL3 Q447H

effect of a mutation on the interaction (fxl18_human FBXL18): with no effect
Substance: NEDD4-like E3 ubiquitin-protein ligase WWP2 (Homo sapiens), O00308 R178Q

effect of a mutation on the interaction (hem1_human ALAS1): with no effect | effect of a mutation on the interaction (fsd2_human FSD2): with no effect | effect of a mutation on the interaction (goga2_human GOLGA2): with no effect
Substance: Parafibromin (Homo sapiens) (from UniProt Q6P1J9) R156H

effect of a mutation on the interaction (txnd5_human TXNDC5): with no effect
Substance: Mannose-1-phosphate guanylyltransferase catalytic subunit beta (Homo sapiens), Q9Y5P6 R158Q

effect of a mutation on the interaction (erep1_human ENTREP1): with no effect | effect of a mutation on the interaction (pdli7_human PDLIM7): with no effect | effect of a mutation on the interaction (hnrl1_human HNRNPUL1): with no effect | effect of a mutation on the interaction (fxl18_human FBXL18): with no effect
Substance: NEDD4-like E3 ubiquitin-protein ligase WWP2 (Homo sapiens), O00308 H401R

effect of a mutation on the interaction (cep63_human CEP63): with no effect
Substance: Histone-lysine N-methyltransferase EZH2 (Homo sapiens), Q15910-2 R288Q
